Reference: the DeepSol protein solubility set

Test: soluble on expression in E. coli; label from the status in PepcDB or PDB records

| Sequence | soluble on expression in E. coli |
| --- | --- |
| MIKLIATDMDGTFLAEDGTYNQEQLAALLPKLAEKGILFAVSSGRSLLAIDQLFEPFLDQIAVIAENGSVVQYRGEILFADMMTKEQYTEVAKKILANPHYVETGMVFSGQKAAYILKGASEEYIQKTKHYYANVKVINGFEDMENDAIFKVSTNFTGHTVLEGSDWLNQALPYATAVTTGFDSIDIILKEVNKGFGMEHLCQALGIKKAETIAFGDNFNDYQMLEFAGRAIATENARPEIKVISDQVIGHCNDGAVLTYLKGLV | not soluble |
| MRKSRLSRYKQNKLIELFVAGVTARTATEPDSIVYTDCYRRYDVLDAGEFSHFRINHSTHFAERQNHINGIGNFWNRAKRHLRKFDGIPKEHFEPYLKECERRFNNSEIKVLVPFLEHHHHHH | not soluble |
| MGLRNENGIVVYPLINGAYRVAASDNYTSNFGLEWNTFQKTQIDKFSGNTVSEERLFAQTNWQKNGLEGETILEVGSGAGRFSQIMLDHTKATLYSVDYSEAVEANYRNNGPHERFKLFQASIYELPFKQASFDRVICLGVLQHTPDFKASVKALVEMVKPGGELVIDFYPIRNVFTKVHGKYLLRPILKRVNHHRLMSLIRNNIDFLISIYTFNRRIGLGVFNRFVPICEIERTLPKGMTPEQLKEWIILDTFDMFSPEYDQPQRLSTVAKWVKEFGMADVDASWVTYHGLEHHHHHH | not soluble |
| MGSDKIHHHHHHMEYEQLLQSELGELEIIREELQNKEYRGMIVKTAKDGTTIRTRLAKKTDKKTGYFVAFWEKDELGKNCPFDENDSADFLCIVVIDGDLNGLFVFPRQCLIEKGILTSEVGIGKMAARFYPSWCQDLNKTAEKTQAWQQVYFKNYSIRKEDH | not soluble |
| MPKDKLVITVSGLAGSGTTTLSKKIAEHYGLKHVYAGLIFRQMAKEKGMSLEEFQKYAELHPEIDREVDRRQIEAAKEGNVVIEGRLAGWMVKNADLKIWLDAPIRVRAERVAKREGISVEEAFMKIAEREMQNRKRYLNLYGIDINDLSIYDLIINTSKWSPEGVFAIVKAAIDHLDPVGDAGSKKEKEVG | soluble |
| MACAAARSPADQDRFICIYPAYLNNKKTIAEGRRIPISKAVENPTATEIQDVCSAVGLNVFLEKNKMYSREWNRDVQYRGRVRVQLKQEDGSLCLVQFPSRKSVMLYAAEMIPKLKTRTQLEHHHHHH | soluble |
| MAQTTINEQTLVNEQRLLAYDCFQNTNKVGLLSALEYLDFVNHLVKSNQIKYLLVPSASQTVYQHVFFDHFRFLSFDNNLLSGFGLAIRLHKEAETVFMLVEKTKQTETEIKKLLEAVKQFSGLKLVVLLVNSPFENKRTKLSYEIVKIIKKHGYQYKRYCRKNFEKKFFNTWNHQKRKQKTKNNLFFVELNSQFAFGTSMANSNSFDLSFTSFKERFNTENNLDIDVHFNVPHKYLLKNLESIKHHLQIDNNTIWKQAFINFAGQLLLYFENLQVFAQEASTLQVNAIVIKQDAYFIVEVMKGYNYDNNCICLLEANKDQNVGLTTASTNTLIGDIKQYEPCFFIEK | soluble |
| MDLFADAPLTLPDADLRYLPHWLDAPLASAWLLRLEQETPWEQPILRIHGEEHPTPRLVAWYGDPDAAYRYSGQVHRPLPWTALLGEIRERVEREVGQRVNGVLLNYYRDGQDSMGWHSDDEPELRRDPLVASLSLGGSRRFDLRRKGQTRIAHSLELTHGSLLVMRGATQHHWQHQVAKTRRSCMPRLNLTFRLVYPQPLEHHHHHH | soluble |
| MGSDKIHHHHHHMLDLLNLPGIKPVDMRHESKGLVIVAEPETVEVPLCGGCNTLMHKHGTRKNKFMDTPLYMEPVRLEVQRPRFRCESCGKMSMPELSFLDDKRRATKRLVDVIRQQCLGTTFHALAEQTGVAVNTVKNIAHDLINELSQTVRYETPVIMGIDEVNLAGGYRCVITNLATNNVFDMLEHRTQEHLKPFFKALPDADKVEWVCTDMWRPFKRSFAQYLPNAKLVIDKFHVVKMASEALEVERKNYQAQLSKEDRIYVKKSIRWLTLKRPGNLTPAEQKALEVVKQAIPELAVAYDFKEAFFCIYDELDKQNAQNAFEAWENSLPDQGLVAFKKLAKTVHNHYDDIFAYWDAPFSITNGYTEGLNGLIKMSNRLGRGYGYPIIRAKTLYSKEARKVGSGIRAGHGKVEYGPHIPTLLKQAESGELD | not soluble |
| RGETIKGQFAVAEVILNRVQSERFPNTPCGVIRQGTGRKYQCQFTYTCDGRKEVIAEKQAYERVAKVARLAMDGAAESLTDGATYYHTTAVRPSWARRFTQTTKIGVHLFYRQGQRTASN | not soluble |
